Data: patent US7923535B2, “Tryptophan as a functional replacement for ADP-ribose-arginine in recombinant proteins” (The United States of America as represented by the …, priority 2002, dated 2011)

Columns and labels:
[1] = system: Escherichia coli ATCC43827; conditions: compared with unmodified HNP-1; see PCT/US03/04649; cited from earlier work
A549 cells [2] = test: IL-8 production by A549 cells (indirect ELISA); assay type: cell-based; conditions: concentrations of 0.75 and 1.5 μM; 12 or 24 hours; compared with the unmodified peptide
Description: […] Culture medium is sampled after 12 or 24 hours of incubation and IL-8 content is assayed by indirect ELISA according to the manufacturer's instructions (R & D System Inc. Minneapolis, Minn.).

CD3^+ T-cells = test: Chemotaxis assay; assay type: cell-based, human; conditions: 0.025 to 25 nM in lower chamber, 4 hours, 37° C.
Description: CD3^+ T-cells are isolated from human peripheral blood prepared by leukapheresis (NIH, Department of Transfusion Medicine, Bethesda, Md.) (Chertov et al., J. Biol. Chem. 271:2935-2940, 1996) and suspended in migration medium (RPMI 1640, 0.5% bovine serum albumin, 25 mM HEPES). Inserts coated with collagen IV (Becton Dickinson Labware, Bedford, Mass.) are placed into 24-well culture plates to form upper and lower chambers in each well. Upper chambers are wetted with migration medium, then 500 μl of migration medium with or without ADP-ribosyl-HNP-1, HNP-1, or with HNP-1 with either an R:W substitution or an R:F substitution (0.025 to 25 nM) are added to the lower chamber. Cells are added to the upper chamber and plates are incubated at 37° C. in 5% CO2 for 4 hours. Lymphocytes that migrate to the lower chamber are harvested by centrifugation and counted in a hematocytometer.

A549 cells [3] = test: Chromium release assay (defensin cytotoxicity); assay type: cell-based; conditions: 1.5 to 24 μM, 18 hours, 37° C., serum-free RPMI; compared with unmodified HNP-1
Description: Chromium-labeled A549 cells (American Type Culture Collection) were incubated (18 hours, 37° C.) in 100 μl of serum-free RPMI (Gibco Fluids Inc., Rockville, Md.) containing HNP-1, ADP-ribosyl-HNP-1, or HNP-1 with either an R:W substitution or an R:F substitution (1.5 to 24 μM) to quantify defensin cytotoxicity. Cytotoxicity is measured as the amount of chromium released from the cells (Panyutich et al., “Human neutrophil defensins and serpins form complexes and inactivate each other,” Am. J. Respir. Cell. Mol. Biol. 12:351-357, 1995).

HNP-1 = molecular target: T1, HNP-1 (Homo sapiens, UniProt P59665); test: Blocking of HNP-1 cytotoxic activity (radial diffusion and chromium release assays after pre-incubation with HNP-1); assay type: cell-based; conditions: pre-incubated 1 hour at 37° C. with HNP-1 (100 nM, E. coli; 12 μM, chromium release)
T1 sequence (P59665 65-94 limits assumed): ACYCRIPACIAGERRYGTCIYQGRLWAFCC
Description: HNP-1 (100 nM) is incubated for 1 hour at 37° C. with ADP-ribosylated HNP-1, or HNP-1 with either an R:W substitution or an R:F substitution (0-800 nM) before the initiation of the cytotoxicity assay on E. coli.
HNP-1 (12 μM) is incubated with ADP-ribosyl-HNP-1, or HNP-1 with either an R:W substitution or an R:F substitution (1.5-12 μM) for 1 hour at 37° C. before the initiation of the chromium release assay.

ADP-ribosylated HNP-1: human neutrophil peptide HNP-1 (alpha defensin) with ADP-ribosylated arginine
cytotoxicity for E. coli ATCC43827 in the radial diffusion assay [1]: less cytotoxic than unmodified HNP-1 | IL-8 release (A549 cells [2]): significantly higher | ability to recruit T cells (CD3^+ T-cells): retain their ability to recruit T cells | cytotoxicity for A549 cells (chromium released) (A549 cells [3]): less cytotoxic than unmodified HNP-1 | effect on the cytotoxic activity of HNP-1 (HNP-1): blocks the cytotoxic activity of HNP-1 in a concentration-dependent manner
